According to publication PMC3410904:
Each block holds one substance with its values, some of them ahead of it.

Columns and labels:
[1] = biological target: CSL (residues 10-436 of human isoform 1, myc/his) (human) (UniProt Q06330)
[2] = biological target: CAN (CSL-ANKNLS) fusion protein (human) (UniProt Q06330)
[3] = biological target: CSL (residues 10-436 of human isoform 1, myc/his) (human) (UniProt Q06330); remark: listed apart in the source
[4] = biological target: CAN (CSL-ANKNLS) fusion protein (human) (UniProt Q06330); remark: listed apart in the source
[5] = biological target: CSL (residues 10-436 of human isoform 1, myc/his) (human) (UniProt Q06330); remark: listed apart in the source
[6] = biological target: CSL^F235L (residues 10-436 of human isoform 1, myc/his) (human) (UniProt Q06330)
[7] = biological target: CSL BTD (Homo sapiens) (UniProt Q06330); conditions: cited from earlier work

TP1-luc luciferase reporter in OT11 cells; … co-transfected with CSL; fold over empty vector [1]: 24 fold
Substance: … (human Notch1 residues 1758-2174) (from UniProt P46531 1758-2174) (domain or fragment)

TP1-luc luciferase reporter in OT11 cells; RAM and ANKNLS in trans co-transfected with CSL; fold activation [1]: 9 fold
TP1-luc luciferase reporter in OT11 cells; RAM co-transfected with CAN; fold over CAN alone [2]: 6 fold
Substance: RAM (human Notch1 residues 1758-1878) (from UniProt P46531 1758-1878) (domain or fragment)

TP1-luc luciferase reporter in OT11 cells; CSL co-transfected with … and 1 to 30 ng dnMAML plasmid; percent of maximal (uninhibited) activation, nearly 0% at 30 ng (% of maximal activation) [3]: 30
TP1-luc luciferase reporter in OT11 cells; CAN co-transfected with RAM and 1 to 30 ng dnMAML plasmid; percent of maximal (uninhibited) activation, nearly 0% at 30 ng (% of maximal activation) [4]: 25
Substance: dominant-negative form of MAML (dnMAML) (domain or fragment)

Further lines, the substance ahead of its results:

Substance: full-length NICD (human Notch1 intracellular domain) (domain or fragment)
TP1-luc luciferase reporter in OT11 cells; NICD co-transfected with CSL; fold activation [5]: 100 fold
TP1-luc luciferase reporter in OT11 cells; NICD co-transfected with CSL^F235L; fold activation [6]: 94 fold

Substance: Notch intracellular domain RAM region RAM (from UniProt P46531)
Kd [7]: 100 nM

Substance: NICD* (full-length NICD with xWxP to A4) (domain or fragment)
TP1-luc luciferase reporter in OT11 cells; NICD* co-transfected with CSL; fold activation [5]: 4 fold
TP1-luc luciferase reporter in OT11 cells; NICD* co-transfected with CSL^F235L; fold activation [6]: 38 fold
